In PMC9482650, “Quantitative fragmentomics allow affinity mapping of interactomes” (Nature Communications, 2022) one finds pKd data, which are given here for three molecules.

What is called pKd is the Kd on a negative log10 scale, so that one unit is a factor of ten.

Some targets named below: HTRA2, O43464; MAST1, Q9Y2H9; LIMK2, P53671; GIPC2, Q8TF65; DLG4_1, P78352; PDZRN4_1, Q6ZMN7; IL16_1, Q14005; PARD3_3, Q8TEW0; SCRIB_2, Q14160; TJP1_2, Q07157; LNX1_2, Q8TBB1.
Common to all, as to experiment: holdup assay
Holding throughout (parameters): key: below the threshold = too weak to quantify, mostly under pKd 3.1 to 4

The target of a further assay is T1, SNTB1, Q13884.
T1 sequence (Q13884 107-205, limits assumed, looked up): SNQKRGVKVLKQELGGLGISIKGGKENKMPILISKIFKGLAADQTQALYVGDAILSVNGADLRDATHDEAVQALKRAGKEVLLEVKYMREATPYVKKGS

In another assay the target is T2, NHERF3_1, Q5T2W1.
T2 sequence (Q5T2W1 4-100, limits assumed, looked up): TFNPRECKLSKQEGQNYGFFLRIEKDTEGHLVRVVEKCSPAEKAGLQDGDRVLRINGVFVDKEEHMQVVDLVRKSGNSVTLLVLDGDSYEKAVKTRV

The next assay concerns the target T3, SIPA1L2, Q9P2F8.
T3 sequence (Q9P2F8 945-1036, limits assumed, looked up): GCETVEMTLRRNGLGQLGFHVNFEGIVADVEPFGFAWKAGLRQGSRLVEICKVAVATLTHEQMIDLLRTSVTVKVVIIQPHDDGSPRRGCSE

A further assay concerns the target T4, CARD11, Q9BXL7.
T4 sequence (Q9BXL7 662-765, limits assumed, looked up): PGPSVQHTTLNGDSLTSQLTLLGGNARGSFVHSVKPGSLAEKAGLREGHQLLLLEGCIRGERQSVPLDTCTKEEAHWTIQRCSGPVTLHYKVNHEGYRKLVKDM

The target of the next assay is T5, DFNB31_2, Q9P202.
T5 sequence (Q9P202 274-371, limits assumed, looked up): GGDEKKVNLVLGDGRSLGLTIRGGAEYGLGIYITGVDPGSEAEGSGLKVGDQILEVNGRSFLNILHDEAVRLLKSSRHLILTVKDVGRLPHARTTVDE

The target in the next assay is T6, SNTA1, Q13424.
T6 sequence (Q13424 82-180, limits assumed, looked up): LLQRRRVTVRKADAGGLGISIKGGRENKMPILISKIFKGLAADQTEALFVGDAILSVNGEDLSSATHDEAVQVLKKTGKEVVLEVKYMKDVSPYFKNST

Another assay concerns the target T7, TIAM2, Q8IVF5.
T7 sequence (Q8IVF5 885-986, limits assumed, looked up): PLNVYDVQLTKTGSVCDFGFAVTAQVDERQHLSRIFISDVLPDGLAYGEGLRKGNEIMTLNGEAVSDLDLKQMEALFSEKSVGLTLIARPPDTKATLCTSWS

For another assay, the target named is T8, DLG3_2, Q92796.
T8 sequence (Q92796 221-321, limits assumed, looked up): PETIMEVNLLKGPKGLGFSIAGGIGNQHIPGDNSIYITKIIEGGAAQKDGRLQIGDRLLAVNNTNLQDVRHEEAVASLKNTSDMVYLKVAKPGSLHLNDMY

Another assay addresses T9, DLG3_1, Q92796.
T9 sequence (Q92796 125-227, limits assumed, looked up): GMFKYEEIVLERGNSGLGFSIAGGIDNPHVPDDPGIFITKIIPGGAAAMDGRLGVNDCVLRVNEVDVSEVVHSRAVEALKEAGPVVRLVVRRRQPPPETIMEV

A further assay has as its target T10, SHANK1, Q9Y566.
T10 sequence (Q9Y566 658-767, limits assumed, looked up): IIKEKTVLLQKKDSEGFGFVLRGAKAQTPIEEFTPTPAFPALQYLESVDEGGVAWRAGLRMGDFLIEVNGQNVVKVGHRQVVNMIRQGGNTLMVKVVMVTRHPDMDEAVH

Another assay deals with T11, DLG3_3, Q92796.
T11 sequence (Q92796 374-475, limits assumed, looked up): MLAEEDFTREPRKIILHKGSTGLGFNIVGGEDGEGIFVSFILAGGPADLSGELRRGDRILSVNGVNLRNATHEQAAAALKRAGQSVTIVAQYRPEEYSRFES

The target of another assay is T12, NHERF3_3, Q5T2W1.
T12 sequence (Q5T2W1 238-333, limits assumed, looked up): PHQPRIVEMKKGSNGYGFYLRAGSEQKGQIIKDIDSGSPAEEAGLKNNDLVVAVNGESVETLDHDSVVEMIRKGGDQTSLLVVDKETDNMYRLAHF

In another assay the target is T13, RAPGEF6, Q8TEU7.
T13 sequence (Q8TEU7 525-625, limits assumed, looked up): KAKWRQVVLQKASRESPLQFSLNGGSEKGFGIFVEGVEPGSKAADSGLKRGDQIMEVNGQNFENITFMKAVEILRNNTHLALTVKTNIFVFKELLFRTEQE

[1] abbreviates: plain residues with an end cap or a label only (N-terminal biotin on a linker: ttds).
[2] abbreviates: plain residues with an end cap or a label only (N-terminal biotin on a linker: ado-ado).

PARD3_3, Q8TEW0, sequence (Q8TEW0 582-685): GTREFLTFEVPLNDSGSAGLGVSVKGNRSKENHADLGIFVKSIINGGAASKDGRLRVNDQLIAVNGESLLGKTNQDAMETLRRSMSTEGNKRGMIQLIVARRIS
LNX1_2, Q8TBB1, sequence (Q8TBB1 371-470): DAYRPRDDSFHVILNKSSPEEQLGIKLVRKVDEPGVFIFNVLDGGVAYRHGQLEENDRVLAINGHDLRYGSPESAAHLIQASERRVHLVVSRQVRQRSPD
GIPC2, Q8TF65, sequence (Q8TF65 112-203): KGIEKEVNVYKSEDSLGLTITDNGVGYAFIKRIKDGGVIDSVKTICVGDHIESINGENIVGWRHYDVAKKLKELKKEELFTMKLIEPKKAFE
HTRA2, O43464, sequence (O43464 355-458): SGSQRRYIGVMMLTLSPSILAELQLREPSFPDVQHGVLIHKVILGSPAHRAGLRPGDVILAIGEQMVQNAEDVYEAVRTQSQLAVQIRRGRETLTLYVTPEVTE
SCRIB_2, Q14160, sequence (Q14160 857-960): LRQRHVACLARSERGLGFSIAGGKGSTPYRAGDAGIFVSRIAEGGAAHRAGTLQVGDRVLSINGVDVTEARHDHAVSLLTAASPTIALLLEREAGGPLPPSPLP
TJP1_2, Q07157, sequence (Q07157 181-274): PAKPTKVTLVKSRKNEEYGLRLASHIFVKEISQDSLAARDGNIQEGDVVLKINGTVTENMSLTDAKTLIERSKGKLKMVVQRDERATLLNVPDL
IL16_1, Q14005, sequence (Q14005 210-306): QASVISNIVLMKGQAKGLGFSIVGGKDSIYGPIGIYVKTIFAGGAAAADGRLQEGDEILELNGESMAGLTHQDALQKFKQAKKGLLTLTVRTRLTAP
MAST1, Q9Y2H9, sequence (Q9Y2H9 962-1065): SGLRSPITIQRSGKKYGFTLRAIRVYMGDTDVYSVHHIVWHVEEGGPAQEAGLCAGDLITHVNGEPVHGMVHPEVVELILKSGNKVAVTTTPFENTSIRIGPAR
LIMK2, P53671, sequence (P53671 143-248): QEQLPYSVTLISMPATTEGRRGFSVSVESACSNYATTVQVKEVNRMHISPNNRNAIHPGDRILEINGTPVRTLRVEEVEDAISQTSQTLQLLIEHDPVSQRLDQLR
PDZRN4_1, Q6ZMN7, sequence (Q6ZMN7 213-318): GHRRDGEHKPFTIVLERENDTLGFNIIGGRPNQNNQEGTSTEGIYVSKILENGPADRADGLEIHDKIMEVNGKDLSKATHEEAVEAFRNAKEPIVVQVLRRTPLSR
DLG4_1, P78352, sequence (P78352 62-152): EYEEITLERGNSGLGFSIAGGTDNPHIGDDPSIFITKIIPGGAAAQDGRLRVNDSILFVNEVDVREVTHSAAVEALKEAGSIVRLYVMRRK

KQVVPFSSSV [GDA, Q9Y2T3]: the negative logarithm of the Kd (pKd) entry is “below the threshold” in the assay with HTRA2, O43464 (setting [1]); 4.04 in the assay with MAST1, Q9Y2H9 (setting [1]); 3.65 in the assay with SNTB1, Q13884 (setting [1]); “below the threshold” in the assay with LIMK2, P53671 (setting [1]); “below the threshold” in the assay with GIPC2, Q8TF65 (setting [1]); 4.31 in the assay with NHERF3_1, Q5T2W1 (setting [1]). The pKd in the assay with DLG4_1, P78352 (setting [1]) was 3.83; with PDZRN4_1, Q6ZMN7 (setting [1]) it was 3.49; in the assay with SIPA1L2, Q9P2F8 (setting [1]), “below the threshold”; with CARD11, Q9BXL7 (setting [1]) it was “below the threshold”; with DFNB31_2, Q9P202 (setting [1]), “below the threshold”; with SNTA1, Q13424 (setting [1]), “below the threshold”. Moreover, the pKd result in the assay with TIAM2, Q8IVF5 (setting [1]) was “below the threshold”; in the assay with DLG3_2, Q92796 (setting [1]) it was 4.38; with DLG3_1, Q92796 (setting [1]) it was “below the threshold”; with IL16_1, Q14005 (setting [1]) it was 3.86; with SHANK1, Q9Y566 (setting [1]) it was 3.49; in the assay with PARD3_3, Q8TEW0 (setting [1]), “below the threshold”. For the same molecule, the pKd result with DLG3_3, Q92796 (setting [1]) is “below the threshold”; in the assay with SCRIB_2, Q14160 (setting [1]), “below the threshold”; with TJP1_2, Q07157 (setting [1]) it was “below the threshold”; with LNX1_2, Q8TBB1 (setting [1]), “below the threshold”; with NHERF3_3, Q5T2W1 (setting [1]), “below the threshold”; with RAPGEF6, Q8TEU7 (setting [1]) it was “below the threshold”.
On to GARVSKETPL [MAPK12, P53778], for which the negative-log Kd (pKd) entry in the assay with HTRA2, O43464 (setting [1]) was “below the threshold”; with MAST1, Q9Y2H9 (setting [1]), 4.65; with SNTB1, Q13884 (setting [1]), 4.71; with LIMK2, P53671 (setting [1]) it was “below the threshold”; with GIPC2, Q8TF65 (setting [1]) it was “below the threshold”; in the assay with NHERF3_1, Q5T2W1 (setting [1]), 5.56. For the same molecule, the pKd entry with DLG4_1, P78352 (setting [1]) is “below the threshold”; with PDZRN4_1, Q6ZMN7 (setting [1]), 4.71; with SIPA1L2, Q9P2F8 (setting [1]), “below the threshold”; in the assay with CARD11, Q9BXL7 (setting [1]), “below the threshold”; in the assay with DFNB31_2, Q9P202 (setting [1]), “below the threshold”; with SNTA1, Q13424 (setting [1]) it was 4.49. Besides, the negative-log Kd (pKd) result is “below the threshold” with TIAM2, Q8IVF5 (setting [1]); 4.28 in the assay with DLG3_2, Q92796 (setting [1]); 3.49 with DLG3_1, Q92796 (setting [1]); “below the threshold” with IL16_1, Q14005 (setting [1]); 3.56 with SHANK1, Q9Y566 (setting [1]); “below the threshold” with PARD3_3, Q8TEW0 (setting [1]). Moreover, the pKd is 4.01 with DLG3_3, Q92796 (setting [1]); 3.65 in the assay with SCRIB_2, Q14160 (setting [1]); “below the threshold” with TJP1_2, Q07157 (setting [1]); “below the threshold” in the assay with LNX1_2, Q8TBB1 (setting [1]); “below the threshold” in the assay with NHERF3_3, Q5T2W1 (setting [1]); “below the threshold” with RAPGEF6, Q8TEU7 (setting [1]).
As for IGHEDLETAV [DGKI, O75912], the negative logarithm of the Kd (pKd) entry is “below the threshold” with HTRA2, O43464 (setting [2]); 4.89 with MAST1, Q9Y2H9 (setting [2]); 5.08 with SNTB1, Q13884 (setting [2]); “below the threshold” with LIMK2, P53671 (setting [2]); 3.6 in the assay with GIPC2, Q8TF65 (setting [2]); 4.75 in the assay with NHERF3_1, Q5T2W1 (setting [2]). In addition, the pKd with DLG4_1, P78352 (setting [2]) is 4.61; with PDZRN4_1, Q6ZMN7 (setting [2]) it was 4.7; in the assay with SIPA1L2, Q9P2F8 (setting [2]), “below the threshold”; in the assay with CARD11, Q9BXL7 (setting [2]), “below the threshold”; with DFNB31_2, Q9P202 (setting [2]), “below the threshold”; with SNTA1, Q13424 (setting [2]), 5.18. In addition, the negative-log Kd (pKd) entry is “below the threshold” in the assay with TIAM2, Q8IVF5 (setting [2]); 4.8 with DLG3_2, Q92796 (setting [2]); 4.09 with DLG3_1, Q92796 (setting [2]); 4.26 with IL16_1, Q14005 (setting [2]); 4.41 with SHANK1, Q9Y566 (setting [2]); 3.64 in the assay with PARD3_3, Q8TEW0 (setting [2]). In addition, the pKd is 4.02 with DLG3_3, Q92796 (setting [2]); 4.83 in the assay with SCRIB_2, Q14160 (setting [2]); “below the threshold” in the assay with TJP1_2, Q07157 (setting [2]); “below the threshold” with LNX1_2, Q8TBB1 (setting [2]); “below the threshold” with NHERF3_3, Q5T2W1 (setting [2]); “below the threshold” with RAPGEF6, Q8TEU7 (setting [2]).
